Non-standard residues stand in square brackets, D forms with d.
Legend:
[1] = system: NFκB activity in subcutaneous MPanc-96 tumors; test: NFκB-Luc activity in subcutaneous MPanc-96 tumors after intratumoral injection; type: in vivo, nude mice; conditions: 10 mg/kg b.wt intratumorally, measured after 4 hours; FIG. 12
Procedure: S100P peptide antagonists (L-peptide and D-peptide) block NFκB activity in vivo in subcutaneous tumors. MPanc-96 pancreatic cancer cells stably transfected with the NFκB-Luc reporter were injected into nude mice subcutaneously (1×10^6) and in vivo NFκB activity indicated by luciferase was measured using an IVIS-100 bioluminescence system. S100P peptide antagonists (L-peptide and D-peptide) (10 mg/kg·b·wt) were injected intratumorally and NFκB activity was measured after 4 hours. […] Thus, delivery of peptide antagonists by direct injection in subcutaneous tumors inhibits NFκB as an indirect read-out of RAGE.

[2] = target: T1, RAGE (sRAGE, extracellular domain) (Homo sapiens, UniProt Q15109); test: ELISA of amphoterin (HMGB1) binding to coated sRAGE; conditions: amphoterin 0-100 ng; FIG. 9; p<0.05 versus HMGB1 alone
T1 construct: the extracellular domain of RAGE peptide (sRAGE) was coated onto the ELISA plate
From the text: S100P peptide antagonists having the sequence Ac-ELKVLMEKEL-NH2 were made with standard L isomers of amino acids. This peptide antagonist comprises the amino acid sequence referred to as SEQ ID NO: 1 (ELKVLMEKEL), and in this instance the termini were blocked to prevent and/or reduce degradation. The inverse sequence, Ac-LEKEMLVKLE-NH2 was produced using D isomers of amino acids. This peptide antagonist comprises the amino acid sequence referred to as SEQ ID NO: 4 (LEKEMLVKLE), and in this instance the termini were blocked to prevent and/or reduce degradation. D isomers of amino acids, which are not naturally occurring, are thought to provide prolonged half-life in vivo. […] For this study, the extracellular domain of RAGE peptide (sRAGE) was coated onto the ELISA plate for 1 hour and non-specific binding sites were blocked with 1% BSA for 15 minutes. Amphoterin (0-100 ng) was added and incubated for 1 hour to allow its binding to its receptor and unbound molecules were removed by washing. Primary antibody against amphoterin and secondary antibody labeled with HRP and subsequently substrate for HRP was used to detect bound amphoterin with its receptor sRAGE. […] A control peptide of the same size had no effect. *=p<0.05 versus HMGB1 alone.
Inhibition of the binding of amphoterin to RAGE by antagonist peptides was tested using an in vitro ELISA based binding assay. […]

[3] = system: NFκB activity in orthotopic MPanc-96 tumor; test: NFκB-Luc activity in orthotopic MPanc-96 tumors after intraperitoneal injection; type: in vivo; conditions: 10 mg/kg b.wt intraperitoneally, measured after 4 hrs; p<0.05; FIG. 13
Procedure: MPanc-96 pancreatic cancer cells stably transfected with the NFκB-Luc reporter were injected orthotopically into the pancreas (1×10^6), and NFκB activity indicated by luciferase activity was measured after two weeks. S100P peptide antagonists (L-peptide and D-peptide) (10 mg/kg·b·wt) were injected intraperitoneally and NFκB activity in the orthotopic tumor was measured after 4 hrs.

[4] = target: T1, RAGE (sRAGE, extracellular domain); test: ELISA of S100P binding to coated sRAGE; conditions: FIG. 10
[5] = system: S100P induced NFκB activity in pancreatic cancer MPanc-96 cells; test: S100P induced NFκB-Luc reporter activity in MPanc-96 cells; type: cell-based; conditions: pre-treatment with peptide, FIG. 11
From the text: MPanc-96 pancreatic cancer cells were stably transfected with a reporter plasmid, NFκB-Luc reporter, that provides a quantifiable photon output based on NFκB transcriptional activity. Extracellular addition of S100P to the cells induced the NFκB activity, which has previously been proven to be mediated through interaction with RAGE. Pre-treatment of the cells with S100P peptide antagonists (L-peptide and D-peptide), block S100P binding with its receptor RAGE, thus blocking S100P induced NFκB activity. Results of this assay are depicted in FIG. 11.

[6] = target: T1, RAGE (sRAGE, extracellular domain); test: ELISA of S100A4 binding to coated sRAGE; conditions: FIG. 10
[7] = system: NFκB activity in S100P expressing BxPC3 cell tumors; test: Basal NFκB luciferase activity in BxPC3 cell tumors in vivo after i.p. peptide; conditions: BxPC3 tumors in scid mice, 24 h after peptide delivery vs time 0, FIG. 8
Procedure: (§1) The effect of these novel peptide antagonists was evaluated on NFκB activity stimulated by S100P in Panc-1 cells. Panc-1 cells stably expressing the NFκB luciferase reporter gene were treated with or without S100P (100 nM) and either peptides of SEQ ID NOs: 1, 2 or 3 (1 μg/ml) for 4 hours. NFκB activity was estimated using luciferase quantitation. Numbers represent means±SE of triplicate determinations. * vs S100P alone (p<0.05); # vs control (p<0.05). Furthermore, administration of peptide of SEQ ID NO: 1 but not SEQ ID NO: 3 inhibited basal NFκB activity in S100P expressing BxPC3 cell tumors when administered in vivo as shown in FIG. 8. BxPC3 cells stably expressing an NFκB luciferase reporter were transplanted to scid mice and tumors were allowed to form. Animals were then injected i.p. with either peptide of SEQ ID NO: 1 (FIG. 8A) or SEQ ID NO: 3 (FIG. 8B). Imaging of luciferase activity was performed before and 24 h after peptide delivery. […] Numbers represent means±SE of triplicate determinations. *=p<0.05 vs time 0.

[8] = target: T2, RAGE (Homo sapiens, UniProt Q15109); test: ELISA-type assay of purified S100P binding to coated purified RAGE; design: Purified RAGE was coated into culture wells; conditions: peptides 50 μM; FIG. 7A; preliminary studies
Procedure: The binding of purified S100P to RAGE was evaluated using an ELISA technique. Purified RAGE was coated into culture wells, S100P was allowed to bind in the presence and absence of the peptides (50 μM), the dishes were extensively washed, and bound S100P was detected with a specific antibody coupled to HRP.
Target sequence in this assay (Q15109 23-342): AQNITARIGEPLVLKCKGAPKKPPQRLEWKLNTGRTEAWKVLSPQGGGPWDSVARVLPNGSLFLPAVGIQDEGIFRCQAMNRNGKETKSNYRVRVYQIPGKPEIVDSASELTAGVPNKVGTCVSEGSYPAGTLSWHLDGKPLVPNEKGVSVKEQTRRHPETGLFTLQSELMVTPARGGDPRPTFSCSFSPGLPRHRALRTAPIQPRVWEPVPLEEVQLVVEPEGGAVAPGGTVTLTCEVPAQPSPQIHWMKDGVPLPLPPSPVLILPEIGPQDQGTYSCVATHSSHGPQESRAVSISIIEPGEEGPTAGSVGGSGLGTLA

[9] = system: NFκB activity stimulated by S100P in Panc-1 cells; test: NFκB luciferase reporter activity stimulated by S100P in Panc-1 cells; type: cell-based; conditions: S100P 100 nM, peptide 1 μg/ml, 4 hours, FIG. 7B
Procedure: as §1

[10] = target: T2, RAGE; test: Co-immunoprecipitation of RAGE with S100P from pancreatic cancer cell lysates; type: binding; design: endogenous in cells; host or cells: MiaPaca2, BxPC3 (and Panc-1, printed 'Panel') cell lysates; conditions: S100P 100 ng, 16 hours at 4° C., FIG. 5
Procedure: As a direct indication of this interaction, lysates from Panel, and MiaPaca2 cells were incubated with S100P and S100P was then immunoprecipitated. RAGE was not present in the samples run without addition of S100P or S100P antibody (lanes A-C), but RAGE was present when both these reagents were included (lanes D-F). […] In these experiments MiaPaca2 (A-D) and BxPC3-1 (E) cell lysates were incubated in the presence of S100P (100 ng) for 16 hours at 4° C. before immunoprecipitation with anti-S100P monoclonal antibodies (IP-S100P) (+) or control IgG (−) and RAGE was identified in the immunoprecipitates by western blotting with an anti-RAGE antibody (IB-RAGE).
Target sequence in this assay (Q15109 23-404): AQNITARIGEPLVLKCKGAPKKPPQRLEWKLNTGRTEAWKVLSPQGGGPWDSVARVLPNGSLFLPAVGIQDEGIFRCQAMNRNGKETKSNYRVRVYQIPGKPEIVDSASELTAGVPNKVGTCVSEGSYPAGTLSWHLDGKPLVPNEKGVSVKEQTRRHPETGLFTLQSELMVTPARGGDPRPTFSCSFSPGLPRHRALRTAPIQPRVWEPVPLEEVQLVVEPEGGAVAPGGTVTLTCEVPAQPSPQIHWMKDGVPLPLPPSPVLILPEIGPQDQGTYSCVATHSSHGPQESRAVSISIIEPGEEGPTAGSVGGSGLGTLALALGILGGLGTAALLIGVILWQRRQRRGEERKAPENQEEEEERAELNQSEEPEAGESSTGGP

[11] = system: human umbilical vein endothelial cells (HUVECs); test: HUVEC migration and alignment on Matrigel; type: cell-based; conditions: 4 hours, FIG. 4C
Procedure: (§2) S100P is secreted by pancreatic cancer cells and acts in an autocrine manner to stimulate their growth, survival, and invasiveness. Thus, S100P could also interact with receptors on cells within the microenvironment. The effects of S100P on human umbilical vein endothelial cells (HUVECs) in vitro were examined. […] HUVEC cells were cultured in the presence of either S100P or uninduced bacterial protein for 48 hours and the number of cells was estimated using MTS. […] Tumors formed with BxPC3 cells were harvested and frozen sections were stained for CD31 staining with the help of the Cancer Biology Histology core. Microvessels bearing CD31 are stained brown. […] HUVEC cells were plated on Matrigel and followed for 4 hours. After this time, control cells mostly remained individually isolated while a few cells began to migrate and align themselves and occasional sprouting was observed. At 4 hrs, cells treated with S100P had mostly migrated aligned themselves, sprouted, formed closed polygons and a complex mesh like structure had developed.

[12] = system: human umbilical vein endothelial cells (HUVECs); test: HUVEC cell number after S100P treatment (MTS); type: cell-based; conditions: S100P treatment for 48 hrs vs uninduced bacterial protein; FIG. 4A
Procedure: as §2

T1 sequence (Q15109 23-342 limits assumed): as the sequence (Q15109 23-342) above

Row | Molecule | reduction in NFκB activity in subcutaneous tumors [1] | block of amphoterin (HMGB1) binding to RAGE [2] | inhibition of cancer cell NFκB activity in orthotopic tumor [3] | block of S100P binding to RAGE [4] | block of S100P induced NFκB activity [5] | block of S100A4 binding to RAGE [6] | inhibition of basal NFκB activity in tumors in vivo [7] | block of the interaction of S100P with RAGE [8] | block of the activation of NFκB by S100P [9] | also measured
1 | Ac-ELKVLMEKEL-NH2 (listed as Homo sapiens) [L-peptide] | strong reduction in NFκB activity | competed with amphoterin and blocked its ability to bind with RAGE | significant inhibition of cancer cell NFκB activity | compete for binding of S100P | block S100P induced NFκB activity | blocked | – | – | – | –
2 | Ac-LEKEMLVKLE-NH2 (Ac-[dL][dE][dK][dE][dM][dL][dV][dK][dL][dE]-NH2; SMILES CSCC[C@@H](NC(=O)[C@@H](CCC(=O)O)NC(=O)[C@@H](CCCCN)NC(=O)[C@@H](CCC(=O)O)NC(=O)[C@@H](CC(C)C)NC(C)=O)C(=O)N[C@H](CC(C)C)C(=O)N[C@@H](C(=O)N[C@H](CCCCN)C(=O)N[C@H](CC(C)C)C(=O)N[C@H](CCC(=O)O)C(N)=O)C(C)C; listed as Homo sapiens) [D-peptide] | strong reduction in NFκB activity | competed with amphoterin and blocked its ability to bind with RAGE | significant inhibition of cancer cell NFκB activity | compete for binding of S100P | block S100P induced NFκB activity | blocked | – | – | – | –
3 | ELKVLMEKEL (listed as Homo sapiens) [SEQ ID NO: 1] | – | – | – | – | – | – | caused a significant reduction in NFκB activity | could block the interaction of S100P with RAGE | could also block the activation of NFκB by S100P | –
4 | GKDGDAVDKLLKD (listed as Homo sapiens) [SEQ ID NO: 3, b142 prints …] | – | – | – | – | – | – | did not | could block the interaction of S100P with RAGE | could also block the activation of NFκB by S100P | –
5 | KELPGFLQSGKDKD (listed as Homo sapiens) [SEQ ID NO: 2] | – | – | – | – | – | – | – | not | not | –
6 | S100P: S100 family calcium-binding protein, RAGE ligand, added exogenously as purified protein (protein, UniProt P25815 1-95, looked up) Protein S100-P: MTELETAMGMIIDVFSRYSGSEGSTQTLTKGELKVLMEKELPGFLQSGKDKDAVDKLLKDLDANGDAQVDFSEFIVFVAAITSACHKYFEKAGLK | – | – | – | – | – | – | – | – | – | direct interaction with RAGE (RAGE in S100P immunoprecipitates) [10]: able to interact directly with RAGE; endothelial cell migration and alignment [11]: increased endothelial cell migration and alignment; HUVEC cell numbers [12]: significant increase in HUVEC cell numbers

Reference: US20100249038A1, “ANTAGONISTS OF THE RECEPTOR FOR ADVANCED GLYCATION END-PRODUCTS (RAGE)” (Board of Regents, University of Texas System, priority 2007, published 2010)
